Measured values as given in the nanobody polyreactivity screen of Harvey et al. (2022).

Experiment: yeast display, Sf9 membrane polyspecificity reagent, FACS + sequencing; frameworks hold sequencing errors
How it was run: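 Genes from sorted yeast were amplified by colony PCR, read by MiSeq 2 × 250 sequencing and filtered on CDR length. These cells carried a synthetic nanobody library in Saccharomyces cerevisiae BJ5465 and were sorted by FACS into low and high (top ~1%) gates on anti-HA and streptavidin fluorescence. Polyreactivity is labelled according to the gate of origin.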

Sequence | polyreactivity (PSR sort gate)
QVQLVESGGGLVQAGGSLRLSCAASGRIFRINAMGWYRQAPGKERELVASISRRGGNTYYADSVKGRFTISRDNAKNTVYLQMNSLKPEDTAVYYCAADTNQERTFDYWGQGTQVTVSS | low polyreactivity
QVRLVESGGGLVQAGGSLRLSCAASGSTFQINAMGWYRQAPGKEREFVAAITVSSGSTYYADSVKGRFTISRDNAKNTVYLQMNSLKPEDTAVYYCAATSKPLGLQTYGYWGQGTQVTVSS | low polyreactivity
QVQLVESGGGLVQAGGSLRLSCAASGSILKGYALGWYRQAPGKERELVAAITSSGGRTYYADSVKGRFTISRDNAKNTVYLQMNSLKPEDTAVYYCNALGGQWARYDYWGQGTQVTVSS | high polyreactivity
QVQLQESRGGLVQAGGSLRLICAASGSISCPHVMGWYRQAPGKEREFVAAINVGANTYYADNVKGRFTISRDNAKNTVYLQKNSLKPEATAVYYCAAVYYGDIGHEYWGQGTQVTVSC | low polyreactivity
QVQLVESGGGLVQAGGSLRLSCAASGIIFYDYAMGWYRQAPGKERELVAAITSSGGSTYYADSVKGRFTISRDNAKNTVYLQMNSLKPEDTAVYYCAAATRGSGRRYDYWGQGTQVTVSS | high polyreactivity
QVQLVESGGGLVQAGGSLRLSCAASGFTFTIYAMGWYRQAPGKERELVATISGRAGRTYYADSVKGRFTISRDNAKNTVYLQMNSLKPEDTAVYYCNAGQWRYPGLYYYWGQGTQVTVSS | high polyreactivity
QVQLVESGGGLVQAGGSLRLSCAASGSIFFGNAMGWYRQAPGKERELVAAITRRGGSTYYADSVKGRFTISRDNEKNTVYLQMNSLKPEDTAVYYCKAVSKRYGYGYWGLGTQVTVSS | high polyreactivity
QVQLVESGGGLVQAGGSLRLSCAASGRIFPYYAMGWYRQAPGKEWELVAAISSSSGSTYYADTVKGRFTISRDNAKNTVYLQMNSLKPEDTAVYYCAARKSWRYNIWSRNAYEDWGQGTQVTVSS | high polyreactivity
QVQLVESGGGLVQAGGSLRLSCAASGIIFAKYAMGWYRQAPGKERELVAGISRSGGRTYYADSVKGRFTISRDNAKNTVYLQMNSLKPEDTAVYYCAAVPHGTGGWWKYDYWGQGTQVTVSS | high polyreactivity
QVQLVESGGGLVQAGGSLRLSCAASGRIFSYNDMGWYRQAPGKERELVAAISWNSGRTYYADSVKGRFTISRDNAKNTVYLQMNSLKPEDTAVYYCNAPYWKSRFRAYYHWGQGTQVTVSS | high polyreactivity
QVQLVESGGGLVQAGGSLRLSCAASGLTFTLNAMGRYRQATGKERELVATISQDGGGTTYADSVKGRFTISRDNAKNTVYLQMNSLKPEDTAVYYCATTLPPSVWGEWSGTRYPYDYWGQGTQVTVSS | low polyreactivity
QVQLVESGGGLVQAGGSLRLICAASGFIFLDYAMGWSRPAPGKERELVAAISSRGARTYYADSVKGRFTISRDNEKNTVYLQMNSLKPEDTAVYYCAARGPLDRYGYWGQGTQVTVSS | high polyreactivity
QVHLVESGGGLVQAGGSLRLSCAASGFTFGIYAMGWYRQAPGKERELVAAIRKGGGSTYYADSVKGRFTISRDNAKNTVYLQMNSLKPEDTAVYYCAADSYRDWHDYWGQGTQVTVSS | low polyreactivity
QVQLVESGGGLVQAGGSLRLSCAASGFTFSSYAMGWYRQAPGKERELVAAITTRGGTFYADSVKGRFTISRDNAKNTVYLQMNSLKPEDTAVYYCAARRVSGRGYWGQGTQVTVSS | high polyreactivity
QVQLVESGGGLLQAGGSLRLSCAASGSIFSGYAMGWYRQAPGKERELVAAISGSGGSTFYADSVKGRFTISRDNAKNTVYLQMNSLKPEDTAVYYCAARRIAPYGRYDYWGQGTQVTVSS | low polyreactivity
QVQHVESGGGLLQAGGSLRLTCAASGSTFGTYAMGWYRQAPGKERELVATISIGGITYYADSVKGRFTISRDNAKNTVYLQLNSLKPEDTAVYYCAKDVNDATSRSDPSGDDYWGQGTQVTVSS | low polyreactivity
QVQLVESGGGLVQAGGSLRLSCAASGSIFAKYAMGWYRQAPGKERELVAVITSRGGTYYADSVKGRFTISRDNAKKTVYLQMNSLKPEDTAVYYCAARGGGQPVAYDYWGQGTQVTVSS | high polyreactivity
QVQLVESGGVLVQAGGSLRLTCAASGSTFLYNAMGWYRQAPGKEREFVAAISGSGGTTYYADSVKGRFTISRDNAKNTVYLQMNSLKPEDTAVYYCAVSQSWYWYYASDYWGQGTQVTVSS | low polyreactivity
QVQLVETGGGLVQAGGSLGLSCDASGSTFLYVRGWYRQAPGKERELVAAISESGGSPYYADSVKGRFTISRDNAKNTVYLQMNSLKPEDTAVYYCAADLPSGLQYRYYRVDYWGQGTQVTVSS | low polyreactivity
QVQLVESGGGLVQAGGSLRLSCAASGRIFYFYAMGWYRQAPGKERELVASISYSGGNTYYADSVKGRFTISRDNAKNTVYLQMNSLKPEDNAVYYCNVLPNTGARGYYYWGQGTQVTVSS | low polyreactivity

Sequence | polyreactivity (PSR sort gate)
QVQLVESGGGLVQAGGSLRLSCAASGRIFTIYAMGWYRQAPGKERELVATISRRGGSTYYADSVKGRFTISRDNSKNTVYLQMNSLKPEDTAVYYCAAESVITWWAYDYWGQGTQVTVSS | high polyreactivity
QVQLVESGGGLVQAGGSLRISCAASGFTFWRYALGWYRQAPGKERELVAAISTGGSTNYADSVKGRFTISRDNAKNTVYLQMNSLKPEDTAVYYCNRQWNFTPYRRNYWGQGTQVTVSS | high polyreactivity
QVQLVESGGGLVQAGGSLRLSCAASGRIFGTNAMGWYRQAPGKERELVAAITWRGGSTYYADSVKGRFTISRDNAKNTVYLQMNSLKPVDTAVYYCAKDLVYWYQTIRAGISNYWGQGTQVTVSS | low polyreactivity
QVQLVESGGGLVQAGGSLRLSCAASGNIFKYYTMRWYRQAPGKERELVAAITSGGRTNYADSVKGRFTISRDNAKNTVYLQMNSLKPEDTAVYYCAAYDVIYSQGFDYWGQGTQVTVSS | low polyreactivity
QVQLVESGGGLVQAGGSLRLSCAASGSIFSVYAMGWYRQAPGKERELVATISGSAGRTYYADSVKGRFTISRDNAKNTVYLQMNSLKPEDTAVYYCAARWYKEYYWGQRTQVTVSS | high polyreactivity
QVQLVESGGGLVQAGGSLRLSCAASGRIFDTNAMGWYRQAPGKERELVAAISSGDTTNYADSVKGRFTISRDNAKNTVYLQMNSLKPEDTAVYYCAVYAISFGWSGWTYEDSWGQGTQVTVSS | low polyreactivity
QVQLLESCGGLVQAGGSLRLSCAASGGTFQRYAMGWYRQAPGKERELVAAISSGGRTYYADSVKGRFTISRDNAKNTVYLEMNSLKAEDNAVYYCNAVGWTQRGRMFEYWGQGTQVTVSS | high polyreactivity
QVQLEESGGGLVQAGGSLRLSCAASGSTFGYYTMGWYRQAPGKERELVAAISWSGGSTYYADSVKGRFTISRDNAKNTVYLQMNSLKPEDTAVYYCAALGYTYKYYSYYWGQGTQVTVSS | high polyreactivity
QVQLVESGGGLVQAGGSLRLSCAASGRIFSLYAMGWYRQAPGNERELVAAISKRGGSTYYADSVKGRFTISRDNAKNTVYLHMNSLKPEDTAVYYCATQLPFRKPWHDYWGQGTQVTVSS | high polyreactivity
QVQLVESGGGLVQAGVSLRLSCAASGRLFYRYAMGWYRQAPGKERELVAGISRGGSTNYADSVKGRFTISRDNAKNTVYLLMKSLKPEDSAVYYCAADAKRTLSYEFGYWGQGTQVTVSS | high polyreactivity
QVQREESGGGLVQAGGSLRLSCAASGSILYYNAMGWYRQAPGKEREFVAGISSSGGSTYYADSVKGRFTISRDNAKNTVYLQMKSLQPEENAVYYCAKRTYWRRGWCFDFWGQGTQVTVSS | high polyreactivity
QVQLVESGGGLVQAGGSHRLSCAASGRTFVVYAMGWYRQAPGKERELVARIRWRDVSTYYADSVKGRFTISRDNAKTTVYLQMNSLKPEDTAVYYCAARSYTGGGRLYYWGQGTQVTVSS | high polyreactivity
QVQLVESGGGLVQAGGSLRLSCAASGSTFYGYAMGGNRQAPGKERELVAAMTWGGASTYYADSVKGRFTIARDNAKNTVYLQMNSLKPEDTAVYYCATVGWGYQPYPFGMDYWGQGTQVTVSS | low polyreactivity
QVQLVESGGGLVQAGGSLRLSCAASGFTISLYTMAWYRQAPGKERELVASNTRRGGSTYYADSVKGRFTISRDYAKNTVYLQMNSLKTEDTAGYYCARAARSDSIFKPRRGYATDGYWGQVTQVTVSS | high polyreactivity
QVQLVESGRGLFQAGGSLRLSCAPSGIIIVNYAMGWYRQAPGKERELVAAITTSGGSTYYADSVKGRFTISRDHAKNTVYLQMNSLKPEDTAVYDCAKKSSLFKHVVRYDYWGQGTQVTVSS | low polyreactivity
QVQLVESGGGLVQAGGSLRLSCAASGSTFAVYAMGWYRQEPGKERELVATITGSGGSTYYADSVKGRFTISRDNAKNTVYLQMNSLKPEDTAVYYCAAEVVAWSLYEDFKTYDYWGQGTQVTVSS | low polyreactivity
QVQLVESGGGLVQAGGSLRLSCAASGRTFSVYAMGWYRQAPGKERELVAAINRGGSTNYADSVKGRFTISRDNAKNTVYLQMNSLKPEDTAVYYCAATYYWGRKAGFDYWGQGTQVTVSS | low polyreactivity
QVQLVESGGGLVQAGGSLRLSCAASGSTFCRNTMGWYRQAPGKERELVAAINRSASNTYYADSVKGRFTISRDNAKNTVYLQMNSLKQEDPAVYYCSTYSRIFKWEYYYWGQGTQGTVSS | high polyreactivity
QVQLVESGGGLVQARGSLRLSCAASGRTVTYYAMGWYRQAPGKERELVAAISSGDSTYYADSVKGRFTISRDNAKNTVYLQMNSLKPEDTAVYYCAVDHVSRYYGYPEITYDYWGQGTQVSVSS | low polyreactivity
QVQLVESGGGLVQAGGRLRLSCAASGRIFVYNAMGWYRQAPGKERELVAAINYRGTRTYYADSVKGRFTISRDNAKNTVYLQLNSLKPEDTAVYYCATYLVTGGGLNVRYDYWGQGTQVTVSS | high polyreactivity
